# Experimental data published in the supplement of paper PMC5998384.
# Columns and labels:
# HeLa Kyoto [1] = experiment: solubility in G1/S (NP-40 vs SDS abundance) (log2 ratio); higher = more soluble; settings: cell cycle stage: G1/S
# HeLa Kyoto [2] = experiment: solubility change mitosis vs G1/S (difference of NP-40 vs SDS log2 ratios) (log2 ratio difference); higher = more soluble in mitosis
# 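For solubility change mitosis vs G1/S (difference of NP-40 vs SDS log2 ratios) in this document: synchronized HeLa Kyoto cells (double thymidine block for G1/S, nocodazole release for mitosis), protein amounts in NP-40 versus SDS lysates quantified by mass spectrometry, three biological replicates.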
# 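For solubility in G1/S (NP-40 vs SDS abundance) in this document: HeLa Kyoto cells arrested at G1/S by double thymidine block, proteins quantified by TMT10plex mass spectrometry in mild NP-40 versus SDS extracts, three biological replicates.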
Sequence,solubility in G1/S (log2) (HeLa Kyoto [1]),solubility change mitosis (log2) (HeLa Kyoto [2])
MAAVKASTSKATRPWYSHPVYARYWQHYHQAMAWMQSHHNAYRKAVESCFNLPWYLPSALLPQSSYDNEAAYPQSFYDHHVAWQDYPCSSSHFRRSGQHPRYSSRIQASTKEDQALSKEEEMETESDAEVECDLSNMEITEELRQYFAETERHREERRRQQQLDAERLDSYVNADHDLYCNTRRSVEAPTERPGERRQAEMKRLYGDSAAKIQAMEAAVQLSFDKHCDRKQPKYWPVIPLKF [GEMIN8],0.511,0.219
MADFEELRNMVSSFRVSELQVLLGFAGRNKSGRKHDLLMRALHLLKSGCSPAVQIKIRELYRRRYPRTLEGLSDLSTIKSSVFSLDGGSSPVEPDLAVAGIHSLPSTSVTPHSPSSPVGSVLLQDTKPTFEMQQPSPPIPPVHPDVQLKNLPFYDVLDVLIKPTSLVQSSIQRFQEKFFIFALTPQQVREICISRDFLPGGRRDYTVQVQLRLCLAETSCPQEDNYPNSLCIKVNGKLFPLPGYAPPPKNGIEQKRPGRPLNITSLVRLSSAVPNQISISWASEIGKNYSMSVYLVRQLTSAMLLQRLKMKGIRNPDHSRALIKEKLTADPDSEIATTSLRVSLMCPLGKMRLTIPCRAVTCTHLQCFDAALYLQMNEKKPTWICPVCDKKAAYESLILDGLFMEILNDCSDVDEIKFQEDGSWCPMRPKKEAMKVSSQPCTKIESSSVLSKPCSVTVASEASKKKVDVIDLTIESSSDEEEDPPAKRKCIFMSETQSSPTKGVLMYQPSSVRVPSVTSVDPAAIPPSLTDYSVPFHHTPISSMSSDLPGLDFLSLIPVDPQYCPPMFLDSLTSPLTASSTSVTTTSSHESSTHVSSSSSRSETGVITSSGSNIPDIISLD [PIAS2],0.155,-0.0526
MADPVAGIAGSAAKSVRPFRSSEAYVEAMKEDLAEWLNALYGLGLPGGGDGFLTGLATGTTLCQHANAVTEAARALAAARPARGVAFQAHSVVPGSFMARDNVATFIGWCRVELGVPEVLMFETEDLVLRKNEKSVVLCLLEVARRGARLGLLAPRLVQFEQEIERELRAAPPAPNAPAAGEDTTETAPAPGTPARGPRMTPSDLRNLDELVREILGRCTCPDQFPMIKVSEGKYRVGDSSLLIFVRVLRSHVMVRVGGGWDTLEHYLDKHDPCRCSSTAHRPPQPRVCTFSPQRVSPTTSPRPASPVPGSERRGSRPEMTPVSLRSTKEGPETPPRPRDQLPPHPRSRRYSGDSDSSASSAQSGPLGTRSDDTGTGPRRERPSRRLTTGTPASPRRPPALRSQSRDRLDRGRPRGAPGGRGAQLSVPSPARRARSQSREEQAVLLVRRDRDGQHSWVPRGRGSGGSGRSTPQTPRARSPAAPRLSRVSSPSPELGTTPASIFRTPLQLDPQQEQQLFRRLEEEFLANARALEAVASVTPTGPVPDPARAPDPPAPDSAYCSSSSSSSSLSVLGGKCGQPGDSGRTANGLPGPRSQALSSSSDEGSPCPGMGGPLDAPGSPLACTEPSRTWARGRMDTQPDRKPSRIPTPRGPRRPSGPAELGTWHALHSVTPRAEPDSWM [GAS2L1],0.282,0.169
MAEASSANLGSGCEEKRHEGSSSESVPPGTTISRVKLLDTMVDTFLQKLVAAGSYQRFTDCYKCFYQLQPAMTQQIYDKFIAQLQTSIREEISDIKEEGNLEAVLNALDKIVEEGKVRKEPAWRPSGIPEKDLHSVMAPYFLQQRDTLRRHVQKQEAENQQLADAVLAGRRQVEELQLQVQAQQQAWQALHREQRELVAVLREPE [PMF1],0.135,0.643
MAEDEPDAKSPKTGGRAPPGGAEAGEPTTLLQRLRGTISKAVQNKVEGILQDVQKFSDNDKLYLYLQLPSGPTTGDKSSEPSTLSNEEYMYAYRWIRNHLEEHTDTCLPKQSVYDAYRKYCESLACCRPLSTANFGKIIREIFPDIKARRLGGRGQSKYCYSGIRRKTLVSMPPLPGLDLKGSESPEMGPEVTPAPRDELVEAACALTCDWAERILKRSFSSIVEVARFLLQQHLISARSAHAHVLKAMGLAEEDEHAPRERSSKPKNGLENPEGGAHKKPERLAQPPKDLEARTGAGPLARGERKKSVVESSAPGANNLQVNALVARLPLLLPRAPRSLIPPIPVSPPILAPRLSSGALKVATLPLSSRAGAPPAAVPIINMILPTVPALPGPGPGPGRAPPGGLTQPRGTENREVGIGGDQGPHDKGVKRTAEVPVSEASGQAPPAKAAKQDIEDTASDAKRKRGRPRKKSGGSGERNSTPLKSAAAMESAQSSRLPWETWGSGGEGNSAGGAERPGPMGEAEKGAVLAQGQGDGTVSKGGRGPGSQHTKEAEDKIPLVPSKVSVIKGSRSQKEAFPLAKGEVDTAPQGNKDLKEHVLQSSLSQEHKDPKATPP [RFX5],0.487,-0.117
MAEGGGPEPGEQERRSSGPRPPSARDLQLALAELYEDEVKCKSSKSNRPKATVFKSPRTPPQRFYSSEHEYSGLNIVRPSTGKIVNELFKEAREHGAVPLNEATRASGDDKSKSFTGGGYRLGSSFCKRSEYIYGENQLQDVQILLKLWSNGFSLDDGELRPYNEPTNAQFLESVKRGEIPLELQRLVHGGQVNLDMEDHQDQEYIKPRLRFKAFSGEGQKLGSLTPEIVSTPSSPEEEDKSILNAVVLIDDSVPTTKIQIRLADGSRLIQRFNSTHRILDVRNFIVQSRPEFAALDFILVTSFPNKELTDESLTLLEADILNTVLLQQLK [UBXN2B],0.562,0.053
MAEGSRGGPTCSGVGGRQDPVSGSGGCNFPEYELPELNTRAFHVGAFGELWRGRLRGAGDLSLREPPASALPGSQAADSDREDAAVARDLDCSLEAAAELRAVCGLDKLKCLEDGEDPEVIPENTDLVTLGVRKRFLEHREETITIDRACRQETFVYEMESHAIGKKPENSADMIEEGELILSVNILYPVIFHKHKEHKPYQTMLVLGSQKLTQLRDSIRCVSDLQIGGEFSNTPDQAPEHISKDLYKSAFFYFEGTFYNDKRYPECRDLSRTIIEWSESHDRGYGKFQTARMEDFTFNDLCIKLGFPYLYCHQGDCEHVIVITDIRLVHHDDCLDRTLYPLLIKKHWLWTRKCFVCKMYTARWVTNNDSFAPEDPCFFCDVCFRMLHYDSEGNKLGEFLAYPYVDPGTFN [SNAPC3],-0.0618,-0.167
MAELGEADEAELQRLVAAEQQKAQFTAQVHHFMELCWDKCVEKPGNRLDSRTENCLSSCVDRFIDTTLAITSRFAQIVQKGGQ [TIMM8B],-0.938,0.734
MAEPGEGLPEEVLALIFRHLSLRDRAAAARVCRAWAAAATCSAVWHDTKISCECELEGMLPPYLSACLDHIHNLRLEFEPSRKPSRRAAIELLMVLAGRAPGLRGLRLECRGEKPLFDAGRDVLEAVHAVCGAASQLRHLDLRRLSFTLDDALVLQAARSCPELHSLFLDNSTLVGSVGPGSVLELLEACPRLRALGLHLASLSHAILEALAAPDRAPFALLALRCACPEDARASPLPNEAWVALRRRHPGLAVELELEPALPAESVTRVLQPAVPVAALRLNLSGDTVGPVRFAAHHYAATLCALEVRAAASAELNAALEELAARCAALREVHCFCVVSHSVLDAFRAHCPRLRTYTLKLTREPHPWRPTLVA [FBXL8],-0.196,-0.0843
MAESGGSSGGAGGGGAFGAGPGPERPNSTADKNGALKCTFSAPSHSTSLLQGLATLRAQGQLLDVVLTINREAFPAHKVVLAACSDYFRAMFTGGMREASQDVIELKGVSARGLRHIIDFAYSAEVTLDLDCVQDVLGAAVFLQMLPVVELCEEFLKAAMSVETCLNIGQMATTFSLASLRESVDAFTFRHFLQIAEEEDFLRLPLERLVFFLQSNRLQSCAEIDLFRAAVRWLQHDPARRPRASHVLCHIRFPLMQSSELVDSVQTLDIMVEDVLCRQYLLEAFNYQVLPFRQHEMQSPRTAVRSDVPSLVTFGGTPYTDSDRSVSSKVYQLPEPGARHFRELTEMEVGCSHTCVAVLDNFVYVAGGQHLQYRSGEGAVDACYRYDPHLNRWLRLQAMQESRIQFQLNVLCGMVYATGGRNRAGSLASVERYCPRRNEWGYACSLKRRTWGHAGAASGGRLYISGGYGISVEDKKALHCYDPVADQWEFKAPMSEPRVLHAMVGAGGRIYALGGRMDHVDRCFDVLAVEYYVPETDQWTSVSPMRAGQSEAGCCLLERKIYIVGGYNWRLNNVTGIVQVYNTDTDEWERDLHFPESFAGIACAPVLLPRAGTRR [KLHL26],-0.0553,-0.0565
MAETKIIYHMDEEETPYLVKLPVAPERVTLADFKNVLSNRPVHAYKFFFKSMDQDFGVVKEEIFDDNAKLPCFNGRVVSWLVLAEGAHSDAGSQGTDSHTDLPPPLERTGGIGDSRPPSFHPNVASSRDGMDNETGTESMVSHRRERARRRNREEAARTNGHPRGDRRRDVGLPPDSASTALSSELESSSFVDSDEDGSTSRLSSSTEQSTSSRLIRKHKRRRRKQRLRQADRASSFSSITDSTMSLNIVTVTLNMERHHFLGISIVGQSNDRGDGGIYIGSIMKGGAVAADGRIEPGDMLLQVNDVNFENMSNDDAVRVLREIVSQTGPISLTVAKCWDPTPRSYFTVPRADPVRPIDPAAWLSHTAALTGALPRYGTSPCSSAVTRTSSSSLTSSVPGAPQLEEAPLTVKSDMSAVVRVMQLPDSGLEIRDRMWLKITIANAVIGADVVDWLYTHVEGFKERREARKYASSLLKHGFLRHTVNKITFSEQCYYVFGDLCSNLATLNLNSGSSGTSDQDTLAPLPHPAAPWPLGQGYPYQYPGPPPCFPPAYQDPGFSYGSGSTGSQQSEGSKSSGSTRSSRRAPGREKERRAAGAGGSGSESDHTAPSGVGSSWRERPAGQLSRGSSPRSQASATAPGLPPPHPTTKAYTVVGGPPGGPPVRELAAVPPELTGSRQSFQKAMGNPCEFFVDIM [DVL1],-0.0781,0.0447
MAGAATGSRTPGRSELVEGCGWRCPEHGDRVAELFCRRCRRCVCALCPVLGAHRGHPVGLALEAAVHVQKLSQECLKQLAIKKQQHIDNITQIEDATEKLKANAESSKTWLKGKFTELRLLLDEEEALAKKFIDKNTQLTLQVYREQADSCREQLDIMNDLSNRVWSISQEPDPVQRLQAYTATEQEMQQQMSLGELCHPVPLSFEPVKSFFKGLVEAVESTLQTPLDIRLKESINCQLSDPSSTKPGTLLKTSPSPERSLLLKYARTPTLDPDTMHARLRLSADRLTVRCGLLGSLGPVPVLRFDALWQVLARDCFATGRHYWEVDVQEAGAGWWVGAAYASLRRRGASAAARLGCNRQSWCLKRYDLEYWAFHDGQRSRLRPRDDLDRLGVFLDYEAGVLAFYDVTGGMSHLHTFRATFQEPLYPALRLWEGAISIPRLP [TRIM14],-0.209,-0.0649
